Target: T1, β2 microglobulin (human, UniProt P61769 21-119)
T1 construct: The 12 kD band on its own, as probed by Western blotting; also called molecule of approximately 12 KD
Assay: Western blotting with the 2D7 antibody
Text: As a result, a molecule (approximately 12 kD) that precipitates specifically in RPMI8226 and U266 cells was observed (FIG. 3). This molecule was not detected by Western blotting using the 2D7 antibody, but since it is at least reproducibly precipitated by the 2D7 antibody, it was strongly predicted to be the 2D7 antigen itself, or a molecule that co-precipitates with the 2D7 antigen.

- binding result: no binding
B1: 2D7 antibody (antibody, mouse IgG2b, V domains shown)
VH: QVQLQQSGPELVKPGASVKMSCKASGYTFTDYFIHWVKQRPGQGLEWIGWIFPGDDTTDYNEKFRGKTTLTADKSSSTAYILLSSLTSEDSAMYFCVRSDDFDYWGQGTTLTVSS
VL: QIVLTQSPAIMSASPGEKVTITCSASSSVSYMHWFQQKPGTFPKLWIYSTSNLASGVPTRFSGSGSGTSYSLTISRMEAEDAATYYCQQRTSYPPTFGSGTKLEIK
notes: Whole mouse monoclonal antibody purified on Protein A from ascites of the 2D7 hybridoma (University of Tokushima); Primers for mouse IgG2b constant regions were used to clone its variable regions

Source: patent publication US20080274110A1 (published 2008)
